The values below come from the Immune Epitope Database (IEDB).

Some targets named below: HLA-A*68:01; HLA-A*31:01; HLA-A*11:01; HLA-A*03:01; HLA-A*33:01.
What all share (assay): IEDB peptide-MHC binding, purified MHC/competitive/radioactivity; filed as Kd, often an IC50 or EC50 that approximates it; ≥ and ≤ were set here for values at or beyond the usual limits of such assays
Setting [1] is: source organism: SARS coronavirus Tor2.
[2] abbreviates: source organism: Dengue virus 2 Jamaica/1409/1983.
The mark [3] stands for this setting: source organism: Vaccinia virus WR.
The mark [4] stands for this setting: source organism: Dengue virus 4 Philippines/H241/1956.
[5] abbreviates: source organism: Dengue virus 1 Brazil/97-11/1997.
The mark [6] stands for this setting: source organism: Mammarenavirus machupoense.
The mark [7] stands for this setting: source organism: Mammarenavirus guanaritoense.
Where [8] appears, read: source organism: Mammarenavirus brazilense.
Where [9] appears, read: source organism: Dengue virus 2 Peru/IQT2913/1996.
[10] abbreviates: source organism: Lymphocytic choriomeningitis virus (strain Armstrong).

Usually Kd stands for the equilibrium constant for the complex coming apart. DTVWEVQGYK: the Kd with HLA-A*68:01 (setting [1]) is 0.881 nM; with HLA-A*31:01 (setting [1]), 7500 nM; with HLA-A*11:01 (setting [1]), 74.6 nM; in the assay with HLA-A*03:01 (setting [1]), 58.4 nM; with HLA-A*33:01 (setting [1]), 1680 nM.

For ILKRWGTIKK, the Kd with HLA-A*03:01 (setting [2]) was 47.4 nM.

Turning to NFITKEIKNR, the equilibrium dissociation constant (Kd) with HLA-A*68:01 (setting [3]) was 526 nM; in the assay with HLA-A*31:01 (setting [3]), 1070 nM; in the assay with HLA-A*11:01 (setting [3]), not below 69800 nM; with HLA-A*03:01 (setting [3]) it was not below 70100 nM; with HLA-A*33:01 (setting [3]), 168 nM.

For DMISYGGGWR, in the assay with HLA-A*33:01 (setting [4]), the Kd turned out to be 506 nM.

For the sequence MLVTPSMAMR, the Kd is 32 nM in the assay with HLA-A*68:01 (setting [5]), not below 51700 nM with HLA-A*31:01 (setting [5]) and 34.6 nM in the assay with HLA-A*33:01 (setting [5]).

Regarding TMLRNSELCH, the Kd is not below 70100 nM with HLA-A*68:01 (setting [6]); 8820 nM in the assay with HLA-A*31:01 (setting [6]); not below 69700 nM in the assay with HLA-A*11:01 (setting [6]); 10200 nM with HLA-A*03:01 (setting [6]); not below 70000 nM with HLA-A*33:01 (setting [6]).

As to TRFWYINHTK, the Kd with HLA-A*68:01 (setting [7]) was 93.2 nM; in the assay with HLA-A*31:01 (setting [7]), 89.5 nM; with HLA-A*11:01 (setting [7]), 1410 nM; with HLA-A*03:01 (setting [7]) it was 1910 nM; with HLA-A*33:01 (setting [7]), not below 70000 nM.

LMKSLGGGR: the Kd with HLA-A*31:01 (setting [5]) is not below 57600 nM.

For IVMLHTTER, the dissociation constant (Kd) with HLA-A*68:01 (setting [4]) came to 19.7 nM; with HLA-A*31:01 (setting [4]), 2.36 nM; in the assay with HLA-A*33:01 (setting [4]), 13.9 nM.

For AANEMGLIEK, the Kd with HLA-A*11:01 (setting [4]) turned out to be 281 nM.

Take AQYKCVTIK: the Kd was determined as 2180 nM in the assay with HLA-A*68:01 (setting [3]); 666 nM in the assay with HLA-A*31:01 (setting [3]); 37.4 nM in the assay with HLA-A*11:01 (setting [3]); 15.7 nM with HLA-A*03:01 (setting [3]); 10200 nM with HLA-A*33:01 (setting [3]).

Regarding VTIKYSNDNR, the Kd with HLA-A*68:01 (setting [3]) was found to be 2.33 nM; in the assay with HLA-A*31:01 (setting [3]), 402 nM; in the assay with HLA-A*11:01 (setting [3]), 53.1 nM; with HLA-A*03:01 (setting [3]), 10300 nM; with HLA-A*33:01 (setting [3]), 6710 nM.

With KLGEFGRAK, in the assay with HLA-A*03:01 (setting [4]), the Kd was determined as 1.75 nM.

Take ACNKIKGKK: the Kd with HLA-A*68:01 (setting [7]) was found to be 1010 nM; in the assay with HLA-A*31:01 (setting [7]), 1840 nM; with HLA-A*11:01 (setting [7]), 19000 nM; with HLA-A*03:01 (setting [7]) it was 1390 nM; in the assay with HLA-A*33:01 (setting [7]), 664 nM.

In the case of GLKIEEIEK, the Kd in the assay with HLA-A*68:01 (setting [3]) was 16800 nM; in the assay with HLA-A*31:01 (setting [3]), 13200 nM; in the assay with HLA-A*11:01 (setting [3]) it was 6510 nM; with HLA-A*03:01 (setting [3]) it was 5630 nM; with HLA-A*33:01 (setting [3]), 16300 nM.

On to ALRGLPIRY, for which the dissociation constant (Kd) with HLA-A*03:01 (setting [2]) turned out to be 52.8 nM.

For NYILCYRKPH, the Kd in the assay with HLA-A*68:01 (setting [8]) is not below 24500 nM; with HLA-A*31:01 (setting [8]), 11600 nM; with HLA-A*11:01 (setting [8]) it was not below 69700 nM; in the assay with HLA-A*03:01 (setting [8]), 5310 nM; with HLA-A*33:01 (setting [8]), 2200 nM.

Take TAMAFHLSTR: the Kd with HLA-A*68:01 (setting [4]) came out at 8.51 nM; with HLA-A*31:01 (setting [4]), 34.3 nM; with HLA-A*33:01 (setting [4]) it was 16.7 nM.

In the case of IMFEQYFIY, the Kd with HLA-A*68:01 (setting [3]) is 205 nM; in the assay with HLA-A*31:01 (setting [3]), 229 nM; with HLA-A*11:01 (setting [3]), not below 77900 nM; with HLA-A*03:01 (setting [3]), 3.67 nM; with HLA-A*33:01 (setting [3]), 3260 nM.

Turning to GAVVKSDNK, the Kd is 12500 nM with HLA-A*68:01 (setting [3]); not below 77900 nM in the assay with HLA-A*31:01 (setting [3]); 782 nM with HLA-A*11:01 (setting [3]); 15400 nM with HLA-A*03:01 (setting [3]); not below 77700 nM with HLA-A*33:01 (setting [3]).

As for ISGIGTFLHY, the Kd in the assay with HLA-A*68:01 (setting [3]) was 19700 nM; in the assay with HLA-A*31:01 (setting [3]), not below 60500 nM; with HLA-A*11:01 (setting [3]) it was 364 nM; in the assay with HLA-A*03:01 (setting [3]), 355 nM; with HLA-A*33:01 (setting [3]), 13800 nM.

For the sequence IGKMFEATAR, the Kd with HLA-A*33:01 (setting [5]) was determined as 637 nM.

As for VMAFHLTTR, the values for the equilibrium dissociation constant (Kd) with HLA-A*31:01 (setting [9]) and in the assay with HLA-A*03:01 (setting [9]) were 7.39 nM and 51.7 nM, respectively.

For AVIIRGHLR, the Kd in the assay with HLA-A*68:01 (setting [1]) is 2640 nM; with HLA-A*31:01 (setting [1]) it was 136 nM; in the assay with HLA-A*11:01 (setting [1]), 2240 nM; with HLA-A*03:01 (setting [1]), not below 33400 nM; with HLA-A*33:01 (setting [1]) it was not below 28200 nM.

Regarding AFNDDGIYIR, the dissociation constant Kd with HLA-A*68:01 (setting [3]) was 1690 nM; with HLA-A*31:01 (setting [3]) it was 618 nM; in the assay with HLA-A*11:01 (setting [3]), 18100 nM; in the assay with HLA-A*03:01 (setting [3]), not below 70100 nM; in the assay with HLA-A*33:01 (setting [3]), 3210 nM.

As for KIEEIEKVEK, the Kd with HLA-A*68:01 (setting [3]) was 417 nM; with HLA-A*31:01 (setting [3]), 9010 nM; in the assay with HLA-A*11:01 (setting [3]), 709 nM; with HLA-A*03:01 (setting [3]) it was 1520 nM; with HLA-A*33:01 (setting [3]) it was not below 47000 nM.

For the sequence TLYICDKQSH, the Kd with HLA-A*68:01 (setting [10]) is not below 70100 nM; with HLA-A*31:01 (setting [10]) it was not below 34300 nM; in the assay with HLA-A*11:01 (setting [10]), not below 47800 nM; in the assay with HLA-A*03:01 (setting [10]), 15100 nM; with HLA-A*33:01 (setting [10]), not below 70000 nM.

For the sequence QVKDNIISR, the Kd amounted to 11.3 nM with HLA-A*68:01 (setting [3]); 908 nM with HLA-A*31:01 (setting [3]); 185 nM with HLA-A*11:01 (setting [3]); 2550 nM with HLA-A*03:01 (setting [3]); 64.8 nM with HLA-A*33:01 (setting [3]).

For the sequence VTNHMEGEHK, the Kd with HLA-A*11:01 (setting [2]) was 508 nM.

Take EFIRIIRPDY: the Kd with HLA-A*68:01 (setting [3]) was 12200 nM; with HLA-A*31:01 (setting [3]) it was 13700 nM; with HLA-A*11:01 (setting [3]), not below 69800 nM; in the assay with HLA-A*03:01 (setting [3]), not below 21400 nM; with HLA-A*33:01 (setting [3]), 934 nM.
